Test [1] concerns the target human mesothelin with His-tag (R&D Systems) (human) (UniProt Q13421). The test can be described thus: ELISA, IgG on captured His-huMesothelin (R&D). (In an ELISA, binding on a coated surface is turned into a signal by an enzyme label.)
The target of test [2] is human mesothelin with His-tag (in house) (human) (UniProt Q13421). The test can be described thus: ELISA, IgG on captured His-huMesothelin (in house).
human mesothelin with His-tag (in house) (human), sequence (Q13421 other isoform, or with tags, fused parts or gaps limits assumed): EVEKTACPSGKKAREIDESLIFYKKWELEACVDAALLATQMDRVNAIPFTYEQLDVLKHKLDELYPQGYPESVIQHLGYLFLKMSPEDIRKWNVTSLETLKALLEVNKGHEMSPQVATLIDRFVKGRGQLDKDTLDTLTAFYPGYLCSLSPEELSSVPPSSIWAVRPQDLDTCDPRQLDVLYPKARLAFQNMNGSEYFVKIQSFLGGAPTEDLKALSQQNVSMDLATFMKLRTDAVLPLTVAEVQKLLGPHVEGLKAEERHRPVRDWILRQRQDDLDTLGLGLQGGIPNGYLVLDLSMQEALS

human mesothelin with His-tag (R&D Systems) (human), sequence (Q13421 other isoform, or with tags, fused parts or gaps limits assumed): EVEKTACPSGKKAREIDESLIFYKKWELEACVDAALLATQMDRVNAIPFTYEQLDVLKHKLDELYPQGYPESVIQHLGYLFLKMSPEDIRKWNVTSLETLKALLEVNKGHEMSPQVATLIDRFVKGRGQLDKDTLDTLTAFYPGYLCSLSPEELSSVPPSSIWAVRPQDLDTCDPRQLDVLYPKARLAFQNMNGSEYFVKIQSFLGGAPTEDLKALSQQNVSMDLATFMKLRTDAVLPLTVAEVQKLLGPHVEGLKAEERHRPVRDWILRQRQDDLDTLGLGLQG

As for “IgG VH HC_SS1/15436 + VL LC_SS1/15455 (antibody)”, the EC50 (in general, the concentration giving half of the maximal effect) in test [1] worked out at 0.0461 mg/L; in test [2], 0.0411 mg/L.

For the origin of these results see patent publication US20170051072A1.
